This note sets out measurements from publication PMC6534634, “Understanding xylose isomerase from Burkholderia cenocepacia: insights into structure and functionality for ethanol production” (AMB Express, 2019).

The target of data set [1] is T1, XylABc (XylA, xylose isomerase from Burkholderia cenocepacia) (Burkholderia cenocepacia, UniProt B4ENA5).
T1 construct: full-length, synthetic gene in pTrcHis-B, His6 fusion (tag apparently kept), E. coli TOP10, Ni resin + Superdex 200; homotetramer ca. 208 kDa
T1 sequence (B4ENA5 1-440): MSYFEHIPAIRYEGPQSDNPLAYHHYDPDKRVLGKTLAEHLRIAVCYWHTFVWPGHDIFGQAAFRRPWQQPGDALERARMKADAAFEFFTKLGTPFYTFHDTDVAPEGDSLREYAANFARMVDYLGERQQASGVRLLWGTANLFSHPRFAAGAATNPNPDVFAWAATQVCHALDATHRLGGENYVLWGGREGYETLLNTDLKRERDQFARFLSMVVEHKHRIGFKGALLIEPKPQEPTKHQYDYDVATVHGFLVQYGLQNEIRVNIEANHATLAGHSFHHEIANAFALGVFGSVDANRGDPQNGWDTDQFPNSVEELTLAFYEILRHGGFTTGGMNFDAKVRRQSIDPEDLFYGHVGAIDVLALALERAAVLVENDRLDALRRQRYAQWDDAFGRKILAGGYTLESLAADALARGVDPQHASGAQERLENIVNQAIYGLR
Kind of data set: sorbitol dehydrogenase-coupled NADH oxidation, […] nm. Type of data set: biochemical.

Data set [2] concerns the molecule itself. Kind of data set: native gel or EMSA; non-denaturing 4-20% gradient PAGE of the pooled Superdex 200 peak of His6-XylA, SDS-free sample and running buffers, standards 10-250 kDa; band identified by LC-MS/MS; tetramer.
Data set [3] concerns the molecule itself. Kind of data set: SDS-PAGE (SDS-resistant oligomer); SDS-PAGE (5% stacking, 12% resolving) after size exclusion; loading dye with 8 M urea, 4% SDS, 100 mM beta-mercaptoethanol; bands identified by LC-MS/MS; dimer beside monomer. (In general: Size exclusion chromatography separates by hydrodynamic size, large species first.)

Turning to `OC[C@@H](O)[C@H](O)[C@@H](O)CO` [xylitol], the IC50 in data set [1] is 3.75 mM.

B1: Xylose isomerase from Burkholderia cenocepacia (His6-XylA fusion protein) (enzyme, Burkholderia cenocepacia J2315, UniProt B4ENA5 1-440, looked up)
chain: T1 sequence (B4ENA5 1-440)
notes: Xylose isomerase XylA of Burkholderia cenocepacia J2315, full-length gene made as synthetic DNA, cloned HindIII/BglII into pTrcHis-B; The fusion has a printed theoretical mass of 53,598.67 Da; also called XylABc; XI; source: E. coli TOP10, purified (Ni2+ resin, Superdex 200)
For B1, the “stoichiometry N” value was found to be 4 in data set [2] and 2 in data set [3].

One may read the IC50 as the point on the concentration scale where inhibition reaches its midpoint. A high value points to weaker potency. For orientation: stoichiometry N means a count of units in the complex or per binding partner.
